Results as given in patent US20210145976A1 (ARO BIOTHERAPEUTICS, published 2021).

What was measured:
[1] = target: T1, recombinant biotinylated CD71 extracellular domain (Sino Biologics) with an N-terminal 6His tag (human, UniProt P02786 89-760, biotinylated (sites not given)); experiment: screening ELISA, ratio
T1 construct: extracellular domain; also called hCD71; huCD71

[2] = target: T1, recombinant biotinylated CD71 …; experiment: screening ELISA

T1 sequence (P02786 other isoform, or with tags, fused parts or gaps): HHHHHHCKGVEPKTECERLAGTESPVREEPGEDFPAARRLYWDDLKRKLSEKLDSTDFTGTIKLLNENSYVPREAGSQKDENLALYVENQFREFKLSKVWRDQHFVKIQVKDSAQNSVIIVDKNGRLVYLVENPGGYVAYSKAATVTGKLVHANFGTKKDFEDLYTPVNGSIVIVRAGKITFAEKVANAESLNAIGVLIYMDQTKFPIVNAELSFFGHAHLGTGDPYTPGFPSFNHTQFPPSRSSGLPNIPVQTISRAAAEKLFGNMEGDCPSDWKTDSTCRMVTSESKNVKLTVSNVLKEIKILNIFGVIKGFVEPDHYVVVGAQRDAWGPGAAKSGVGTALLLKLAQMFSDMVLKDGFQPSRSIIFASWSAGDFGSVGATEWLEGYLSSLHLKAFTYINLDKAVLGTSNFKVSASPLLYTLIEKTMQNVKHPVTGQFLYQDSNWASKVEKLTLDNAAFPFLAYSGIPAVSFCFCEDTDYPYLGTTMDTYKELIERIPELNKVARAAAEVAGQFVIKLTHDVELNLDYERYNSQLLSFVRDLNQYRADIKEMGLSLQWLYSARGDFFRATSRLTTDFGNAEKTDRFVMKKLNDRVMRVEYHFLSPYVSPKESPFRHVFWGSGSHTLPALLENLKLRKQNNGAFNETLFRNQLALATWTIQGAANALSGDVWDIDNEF

| Binder | hCD71:HSA [1] | hCD71 [2] |
| --- | --- | --- |
| SEQ ID NO 99 (designed binder, FN3 domain) MLPAPKNLVVSRVTEDSARLSWTAPDAAFDSFGIQYNEFVFRGEAIVLTVPGSERSYDLTGLKPGTEYFVPISGVKGGDDSRPLSAIFTT | 105 | 853000 |
| SEQ ID NO 107 (designed binder, FN3 domain) MLPAPKNLVVSRVTEDSARLSWTAPDAAFDSFFIQYTESHWVGEAIVLTVPGSERSYDLTGLKPGTEYAVPIEGVKGGDSSTPLSAIFTT | 104 | 420000 |
| SEQ ID NO 102 (designed binder, FN3 domain) MLPAPKNLVVSRVTEDSARLSWTAPDAAFDSFSIDYDEPQPVGEAIVLTVPGSERSYDLTGLKPGTEYRVDIWGVKGGPTSGPLRATFTT | 258 | 3.48e+06 |
| SEQ ID NO 213 (designed binder, FN3 domain) MLPAPKNLVVSRVTEDSARLSWTAPDAAFDSFWIYYWEIERAGEAIRLDVPGSERSYDLTGLKPGTEYRVDIWGVKGGPTSGPLRATFTT | 215 | 2.11e+06 |
| SEQ ID NO 100 (designed binder, FN3 domain) MLPAPKNLVVSRVTEDSARLSWTAPDAAFDSFWIEYWEVVGFGEAIVLTVPGSERSYDLTGLKPGTEYWVGIYGVKGGNPSVPLSAIFTT | 1260 | 2.95e+06 |
| SEQ ID NO 103 (designed binder, FN3 domain) MLLAPKNLVVSRVTEDSARLSWTAPDAAFDSFAIEYFEYTGEGEAIVLTVPGSERSYDLTGLKPGTEYYVGIYGVKGGYLSRPLSAIFTT | 4020 | 4.83e+06 |
| SEQ ID NO 81 (designed binder, FN3 domain) MLPAPKNLVVSRVTEDSARLSWTAPDAAFDSFVIEYREGAWYGEAIVLTVPGSERSYDLTGLKPGTEYAVYIPGVKGGPRSFPLSAIFTT | 19 | 537000 |
| SEQ ID NO 106 (designed binder, FN3 domain) MLPAPKNLVVSRVTEDSARLSWTAPDAAFDSFTIAYEEHGLVGEAIYLRVPGSERSYDLTGLKPGTEYHVGIMGVKGGVFSSPLSAIFTT | 495 | 594000 |
| SEQ ID NO 84 (designed binder, FN3 domain) MLPAPKNLVVSRVTEDSARLSWTAPDAAFDSFPIYYWEVFPAGEAIELDVPGSERSYDLTGLKPGTEYFVRIEGVKGGASSYPLRAEFTT | 449 | 1.73e+06 |
| SEQ ID NO 97 (designed binder, FN3 domain) MLPAPKNLVVSRVTEDSARLSWTAPDAAFDSFFISYFEGWASGEAIHLYVPGSERSYDLTGLKPGTEYSVHIQGVKGGQPSTPLSAIFTT | 1090 | 2.41e+06 |
| SEQ ID NO 89 (designed binder, FN3 domain) MLPAPKNLVVSRVTEDSARLSWTAPDAAFDSFHISYEETPVVGEAIYLRVPGSERSYDLTGLKPGTEYTVAIHGVKGGRESTPLIAPFTT | 1720 | 3.44e+06 |
| SEQ ID NO 91 (designed binder, FN3 domain) MLPAPKNLVVSRVTEDSARLSWTAPDAAFDSFVIEYWERTQPGEAIVLTVPGSERSYDLTGLKPGTEYDVWISGVKGGKWSEPLSAIFTT | 800 | 1.44e+06 |
| SEQ ID NO 94 (designed binder, FN3 domain) MLPAPKNLVVSRITEDSARLSWTAPDAAFDSFGIYYYEWWSTGEAIVLTVPGSERSYDLTGPKPGTEYYVKISGVKGGYRSYPLSAIFTT | 44 | 439000 |
| SEQ ID NO 87 (designed binder, FN3 domain) MLPAPKNLVVSRVTEDSARLSWTAPDAAFDSFAIEYYEPVPAGEAIYLDVPGSERSYDLTGLKPGTEYDVTIYGVKGGYYSHPLFASFTT | 2580 | 2.83e+06 |
